In patent US6703198 one finds Replating efficiency (FL Notch1 32D clones after 6 days on HS-27a with G-CSF), percent of full-length Notch1-expressing 32D cells mature by day 6 on HS-27a in G-CSF and percent of full-length Notch1-expressing 32D cells remaining undifferentiated by day 6 on HS-27a in G-CSF data, which are given here for one substance.

For this assay, the target named is full-length murine Notch1 expressed on 32D myeloid progenitor cells (murine) (UniProt Q01705). In words: cell-based or functional assay.
full-length murine Notch1 expressed on 32D myeloid progenitor cells (murine), sequence (Q01705 19-2531): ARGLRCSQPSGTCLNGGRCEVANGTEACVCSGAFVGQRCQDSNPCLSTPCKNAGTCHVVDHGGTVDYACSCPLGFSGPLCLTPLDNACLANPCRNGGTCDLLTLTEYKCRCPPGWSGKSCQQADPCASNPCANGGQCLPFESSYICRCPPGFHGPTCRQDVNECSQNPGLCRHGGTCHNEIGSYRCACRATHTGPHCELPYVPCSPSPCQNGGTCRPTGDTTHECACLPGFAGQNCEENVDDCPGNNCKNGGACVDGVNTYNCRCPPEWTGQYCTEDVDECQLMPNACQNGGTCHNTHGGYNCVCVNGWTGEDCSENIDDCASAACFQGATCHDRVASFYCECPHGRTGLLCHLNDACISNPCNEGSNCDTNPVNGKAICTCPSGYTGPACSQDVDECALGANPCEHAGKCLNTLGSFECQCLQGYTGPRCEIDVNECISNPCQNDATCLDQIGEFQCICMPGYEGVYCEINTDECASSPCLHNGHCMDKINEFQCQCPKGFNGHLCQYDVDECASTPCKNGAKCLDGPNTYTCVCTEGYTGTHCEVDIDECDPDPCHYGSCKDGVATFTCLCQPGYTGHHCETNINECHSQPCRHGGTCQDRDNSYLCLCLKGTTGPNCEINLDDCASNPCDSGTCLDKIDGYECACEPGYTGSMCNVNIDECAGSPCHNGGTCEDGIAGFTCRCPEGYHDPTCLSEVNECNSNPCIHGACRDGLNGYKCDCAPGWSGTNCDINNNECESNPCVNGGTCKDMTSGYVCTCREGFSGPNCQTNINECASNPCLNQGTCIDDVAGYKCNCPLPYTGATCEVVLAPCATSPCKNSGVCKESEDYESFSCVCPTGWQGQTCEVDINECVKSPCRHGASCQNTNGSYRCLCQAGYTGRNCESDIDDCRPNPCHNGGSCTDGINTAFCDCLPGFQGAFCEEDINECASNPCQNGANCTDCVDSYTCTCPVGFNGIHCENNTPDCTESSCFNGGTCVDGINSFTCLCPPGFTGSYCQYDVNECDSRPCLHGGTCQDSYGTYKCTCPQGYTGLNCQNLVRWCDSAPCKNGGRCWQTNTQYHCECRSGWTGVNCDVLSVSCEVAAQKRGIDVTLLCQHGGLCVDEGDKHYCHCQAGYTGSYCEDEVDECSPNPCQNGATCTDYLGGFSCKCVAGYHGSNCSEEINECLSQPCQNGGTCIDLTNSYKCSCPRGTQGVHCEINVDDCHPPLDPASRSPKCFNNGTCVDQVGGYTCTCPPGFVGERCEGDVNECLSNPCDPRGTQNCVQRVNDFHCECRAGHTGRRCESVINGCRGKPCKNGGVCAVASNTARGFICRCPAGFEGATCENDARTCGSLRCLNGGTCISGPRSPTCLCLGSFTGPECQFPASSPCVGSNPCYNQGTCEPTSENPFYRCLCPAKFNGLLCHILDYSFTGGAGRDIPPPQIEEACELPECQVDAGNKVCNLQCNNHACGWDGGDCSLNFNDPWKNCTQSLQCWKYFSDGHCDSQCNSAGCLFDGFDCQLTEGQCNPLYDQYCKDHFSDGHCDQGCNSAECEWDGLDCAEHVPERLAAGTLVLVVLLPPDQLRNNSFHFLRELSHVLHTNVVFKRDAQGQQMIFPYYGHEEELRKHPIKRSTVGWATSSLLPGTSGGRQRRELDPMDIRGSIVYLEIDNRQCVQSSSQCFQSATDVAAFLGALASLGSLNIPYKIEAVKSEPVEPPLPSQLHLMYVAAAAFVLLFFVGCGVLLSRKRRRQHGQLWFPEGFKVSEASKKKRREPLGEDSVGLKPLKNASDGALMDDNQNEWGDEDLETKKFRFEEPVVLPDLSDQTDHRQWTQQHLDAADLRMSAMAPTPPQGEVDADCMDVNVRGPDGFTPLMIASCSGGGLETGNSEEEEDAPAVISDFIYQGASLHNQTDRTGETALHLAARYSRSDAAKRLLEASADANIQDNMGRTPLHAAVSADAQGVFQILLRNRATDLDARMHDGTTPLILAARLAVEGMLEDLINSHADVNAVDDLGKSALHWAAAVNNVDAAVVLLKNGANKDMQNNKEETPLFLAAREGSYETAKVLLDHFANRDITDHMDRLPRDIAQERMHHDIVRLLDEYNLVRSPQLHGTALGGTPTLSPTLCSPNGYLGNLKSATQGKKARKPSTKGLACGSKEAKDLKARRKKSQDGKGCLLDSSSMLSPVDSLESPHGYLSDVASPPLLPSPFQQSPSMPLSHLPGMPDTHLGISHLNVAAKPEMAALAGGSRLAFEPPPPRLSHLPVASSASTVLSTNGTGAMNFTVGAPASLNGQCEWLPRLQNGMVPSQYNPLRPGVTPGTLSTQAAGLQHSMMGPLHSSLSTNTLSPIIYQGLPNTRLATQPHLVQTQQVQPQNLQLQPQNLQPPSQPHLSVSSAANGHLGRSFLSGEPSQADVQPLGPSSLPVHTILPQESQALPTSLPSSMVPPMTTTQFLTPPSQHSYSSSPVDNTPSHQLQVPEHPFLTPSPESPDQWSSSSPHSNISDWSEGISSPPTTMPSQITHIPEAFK

The substance “human JAGGED1 (hJAGGED1) expressed on HS-27a human bone marrow stromal cells (from UniProt P78504 22-1218) (ligand)” came in with a Replating efficiency (FL Notch1 32D clones after 6 days on HS-27a with G-CSF) of 190%, a percent of full-length Notch1-expressing 32D cells mature by day 6 on HS-27a in G-CSF of 20% and a percent of full-length Notch1-expressing 32D cells remaining undifferentiated by day 6 on HS-27a in G-CSF of 40%.
